Experimental data reported in IntAct's records for PubMed 26656091.

B1: Adapter molecule crk (Homo sapiens), P46108-1 (parent)
chain: MAGNFDSEERSSWYWGRLSRQEAVALLQGQRHGVFLVRDSSTSPGDYVLSVSENSRVSHYIINSSGPRPPVPPSPAQPPPGVSPSRLRIGDQEFDSLPALLEFYKIHYLDTTTLIEPVSRSRQGSGVILRQEEAEYVRALFDFNGNDEEDLPFKKGDILRIRDKPEEQWWNAEDSEGKRGMIPVPYVEKYRPASASVSALIGGNQEGSHPQPLGGPEPGPYAQPSVNTPLPNLQNGPIYARVIQKRVPNAYDKTALALEVGELVKVTKINVSGQWEGECNGKRGHFPFTHVRLLDQQNPDEDFS

Variants of: B1
Settings: with ppia_human PPIA

| effect of a mutation on the interaction | Variant |
| --- | --- |
| increasing interaction strength | P218F |

Variants of: B1
Settings: with ppia_human PPIA
Remark: another data set of the same source

| effect of a mutation on the interaction | Variant |
| --- | --- |
| disrupting interaction strength | P220A |
